Experimental data from patent US7786356B2, “Method for the production of calendic acid, a fatty acid containing delta 8,10,12 conjugated double bonds and related fatty acids having a modification at the delta 9 position” (E.I. du Pont de Nemours and Company, priority 1999, dated 2010).

B1: DMFad2-2: Dimorphotheca sinuata Δ-9 hydroxy-conjugase (SEQ ID NO:12/13) converting trans-linoleic acid to dimorphecolic acid (protein, listed as Dimorphotheca sinuata)
chain: MGASEEMKVLERVPVSKPPFEYNDLKKAVPPHCFTRSLSLSFYYLFYDLIKVCILFYVASKYIPMLPYSLSCIVWPLYWFFQGAFLGRLWMIGHECGHHSFSNYRWLDDTVGFLVHTATLTPYFSFKYSHRNHHAHTNSLEYDEVHVPKIRKFKSEHLYSEFLTNNPFGLVVNMVFELTFGYPSYLIFNYSGRKLTQAGFASHLYPQSPIFNDSERNHVFFSDVGICIVLYALYRIAIAKGAMLVLYVYGLPWVVMSAFIFSLTYLQHTHPSIPHYDSTEWNWLRGALSSIDRELAGAFNIKKTHYHVVHHLFPFIPEYHAHDATEALKPILGPYYKYDGTPFYKALWREMKDCLYVESDDGPNKTGVYWFKTKT
B2: CalFad2-2: Calendula officinalis fatty acid modifying enzyme (cDNA SEQ ID NO:3, protein SEQ ID NO:4) forming conjugated double bonds at delta-9 position (protein, listed as Calendula officinalis)
chain: MGKAASAKKVLERVPISKPPFEYNDLKKAVPPHCFSRPLSRSLYFLFHDIIVTCILFYVASNYIHMLPRFLSCIVWPVYWISQGVFLGRLWMIGHECGHHSFSNYRWVDDTVGFLIHTATLTPYFSFKYSHRNHHAHTNSMEYDEVHIPKRKSEALYFEFLGNNPIGLMITMLCKLTFGYAAYIMFNYTGKKHKSGGLASHFYPQSPLFNDSERNHVLFSDIGICIVLYACYRIVTVTGAMPAFYVYGIPWVIMSAILFAATYLQHTHPSIPHYDTTEWNWLRGALSTIDRDLGFFNMNKTHYHVIHHLFPVIPEYHAQEATEAIKPILGQYYKYDGTPFLKALWREMKECIYVESDEGQKKQGIYWFKNKT

Tests used:
Format in all cases: cell-based
somatic soybean embryos [1] = assay: Production of dimorphecolic acid in transgenic somatic soybean embryos expressing DMFad2-1 and/or DMFad2-2
From the text: Initially, the open-reading frames of cDNAs for DMFad2-1 and DMFad2-2 were amplified by PCR using Pfu polymerase (Stratagene) to generate the appropriate restriction enzyme sites for cloning into the soybean expression vector. For amplification of the open-reading frame of the DMFad2-1 cDNA, EST dms2c.pk006.d7 (SEQ ID NO: 10 for the nucleotide sequence, and SEQ ID NO:11 for the polypeptide translation product) was used as the template, and the oligonucleotide primers were: 5′-tatgcggccgcAAATGGGAGCAGGAGGTTG-3′ (sense, SEQ ID NO:22) and 5′-tttgcggccgc[…]-3′ (antisense, SEQ ID NO:23). For amplification of the open-reading frame of the DMFad2-2 cDNA, EST dms2c.pk001.113 (SEQ ID NO:12 for the nucleotide sequence, and SEQ ID NO:13 for the polypeptide translation product) was used as the template, and the oligonucleotide primers were: 5′-tgcggccgc[…]-3′ (sense, SEQ ID NO:24) and 5′-tagcggccgcTGATTAATCAAGTCTTAG-3′ (antisense, SEQ ID NO:25). The nucleotides shown in lower case are not Dimorphotheca sequences, but instead encode an added NotI site along with additional bases to facilitate restriction enzyme digestion. The resulting PCR products were subcloned into the intermediate vector pCR-Script AMP SK(+) (Stratagene) according to the manufacturer's protocol. […]
The expression constructs containing the DMFad2-1 and DMFad2-2 coding sequences in vector pKS67 were transformed into somatic soybean embryos using the biolistic method as described in Example 10. […] The fatty acid compositions of the resulting transgenic soybean embryos were then assessed for the presence of novel fatty acid structures. […] The resulting transgenic soybean embryos selected for hygromycin resistance were analyzed for alterations in fatty acid content relative to untransformed embryos. […] The recovered fatty acid methyl esters and derivatives were then analyzed using a Hewlett-Packard 6890 chromatograph fitted with an Omegawax 320 column (30 m×0.32 mm inner diameter; Supelco). […] Fatty acid methyl esters were also analyzed by GC-MS an HP6890 interfaced with a HP5973 (Hewlett-Packard) mass selective detector. […]

[2] = tested on: Saccharomyces cerevisiae INVSc1 cells; assay: Expression of CalFad2-1 and CalFad2-2 in Saccharomyces cerevisiae; settings: cells grown in media containing 2 mM linoleic acid, 4 days at 16° C.; (w/w) of total fatty acids
From the text: The Calendula officinalis clones CalFad2-1 and CalFad2-2 were digested with the restriction enzymes EcoRI and XhoI. The resulting DNA fragments containing the entire cDNA inserts were purified by agarose gel electrophoresis. The purified cDNAs were ligated into the EcoRI and XhoI sites of the Saccharomyces cerevisiae expression vector pYES2 (Invitrogen) using T4 DNA ligase (New England Biolabs). The resulting plasmids pYes2/CalFad2-1 and pYes2/CalFad2-2 were introduced into Saccharomyces cerevisiae INVSc1 (Invitrogen Corp.) cells by lithium acetate-mediated transformation [Sherman F, Fink G R, Hicks J B, Methods in Yeast Genetics: A Laboratory Course Manual, Cold Spring Harbor Lab. Press, Plainview, N.Y. (1987)]. Transformed cells were selected for their ability to grow in the absence of uracil. […] In cells grown in media containing linoleic acid, calendic acid (18:3Δ^8trans,10trans,12cis) was detected in amounts of up to 2.9% (w/w) of the total fatty acids of cultures expressing CalFad2-1 (FIG. 3) and in amounts of up to 0.2% of the total fatty acids of cultures expressing CalFad2-2. […] No calendic acid was detected in cultures harboring the expression vector without a cDNA insert or in cells grown in the absence of exogenous linoleic acid. […]

somatic soybean embryos [3] = assay: Production of calendic acid in somatic soybean embryos expressing CalFad2-1 or CalFad2-2; settings: single somatic embryos
From the text: The open-reading frames of these cDNAs were amplified by PCR in order generate the appropriate flanking restriction enzyme sites for cloning into the soybean expression vector. The oligonucleotide primers used for amplification of the CalFad2-1 open-reading frame were: 5′-ttgcggccgc[…]-3′ (sense, SEQ ID NO:18) and 5′-ttgcggccg[…]-3′ (antisense, SEQ ID NO:19). The oligonucleotide primers used for amplification of the CalFad2-2 coding sequence were: 5′-agcggccgcTATACCATGGGCAAG-3′ (sense, SEQ ID NO:20) and 5′-tgcggccgcTATGTTAAACTTC-3′ (antisense, SEQ ID NO:21). [Note: The sequences shown in lower case contain an added NotI site along with additional bases to facilitate restriction enzyme digestion.] The template was the cDNA corresponding to either EST ecs1c.pk009.n14 (CalFad2-1) or EST ecs1c.pk08.a24 (CalFad2-2), and Pfu polymerase (Stratagene) was used for the amplification reactions. The resulting PCR products were subcloned into the intermediate vector pCR-Script AMP SK(+) (Stratagene) according to the manufacturer's protocol. The amplified CalFad2-1 and CalFad2-2 coding sequences were then released with NotI digestion and then subcloned into the corresponding site of the soybean expression vector pKS67.
The PCR amplified coding sequences of CalFad2-1 and CalFa2-2 were fused with the β-conglycinin promoter and phaseolin termination sequences in vector pKS67 was transformed into somatic soybean embryos as follows. To induce somatic embryos, cotyledons, 3-5 mm in length dissected from surface sterilized, immature seeds of a soybean cultivar A2872 or JACK-910 were cultured in the light or dark at 26° C. on an appropriate agar medium for 6-10 weeks. Somatic embryos that produce secondary embryos were then excised and placed into a suitable liquid medium. After repeated selection for clusters of somatic embryos that multiplied as early, globular staged embryos, the suspensions were maintained as described below.
Soybean embryogenic suspension cultures were maintained in 35 mL liquid media on a rotary shaker, 150 rpm, at 26° C. with florescent lights on a 16:8 hour day/night schedule. Cultures were subcultured every two weeks by inoculating approximately 35 mg of tissue into 35 mL of liquid medium.
Soybean embryogenic suspension cultures were then transformed with the vector pKS67 containing the coding sequence for CalFad2-1 and CalFad2-2 by the method of particle gun bombardment (Klein et al. (1987) Nature (London) 327:70, U.S. Pat. No. 4,945,050). A Du Pont Biolisticä PDS1000/HE instrument (helium retrofit) was used for these transformations.
To […] of a 60 mg/mL […] gold particle suspension were added (in order): 5 mL DNA (1 mg/mL), 20 ml spermidine (0.1 M), and […] CaCl2 (2.5 M). The particle preparation was then agitated for three minutes, spun in a microfuge for 10 seconds and the supernatant removed. The DNA-coated particles were then washed once in 400 mL 70% ethanol and resuspended in 40 mL of anhydrous ethanol. The DNA/particle suspension was sonicated three times for one second each. Five mL of the DNA-coated gold particles was then loaded on each macro carrier disk.
Approximately 300-400 mg of a two-week-old suspension culture was placed in an empty 60×15-mm petri dish and the residual liquid removed from the tissue with a pipette. For each transformation experiment, approximately 5 to 10 plates of tissue were bombarded. Membrane rupture pressure was set at 1100 psi and the chamber was evacuated to a vacuum of 28 inches mercury. The tissue was placed approximately 3.5 inches away from the retaining screen and bombarded three times. Following bombardment, the tissue was divided in half and placed back into liquid and cultured as described above.
Five to seven days post bombardment, the liquid media was exchanged with fresh media, and eleven to twelve days post bombardment with fresh media containing […] hygromycin. This selective media was refreshed weekly. […]

[4] = n = 5, ± standard deviation, weight % of total fatty acids

Row | Molecule | dimorphecolic acid accumulation (somatic soybean embryos [1]; "DMFad2-2 alone" transformants) | 18:2Δ9cis,12trans in extracts of somatic soybean embryos (FIG. 9) (somatic soybean embryos [1]; embryo extracts of FIG. 9 panels B and C) | dimorphecolic acid isomers, share of the total fatty acids (somatic soybean embryos [1]; experiment MSE 229, GC-MS selected ion 225 m/z) [%] | calendic acid (18:3Δ8trans,10trans,12cis), amount of the total fatty acids [2] | Other, Fatty Acid Weight % (somatic soybean embryos [3]; n = 5, weight % of total fatty acids) | 16:0, Fatty Acid Weight % (somatic soybean embryos [3]; [4]) [Weight %] | 18:0, Fatty Acid Weight % (somatic soybean embryos [3]; [4]) [Weight %] | 18:1, Fatty Acid Weight % (somatic soybean embryos [3]; [4]) [Weight %] | 18:2, Fatty Acid Weight % (somatic soybean embryos [3]; [4]) [Weight %] | 18:3, Fatty Acid Weight % (somatic soybean embryos [3]; [4]) [Weight %] | Calendic Acid, Fatty Acid Weight % (somatic soybean embryos [3]; [4]) [Weight %]
1 | B1 | less than 0.1% | lacked detectable amounts | < 0.1 |  |  |  |  |  |  |  | 
2 | B2 |  |  |  | up to 0.2% | ≦1.7 Weight % | 12.3 ± 1.1 | 3.3 ± 0.5 | 8.6 ± 2.1 | 38.2 ± 3.4 | 17.7 ± 3.5 | 18.1 ± 3.6
